Blank lines part the entries; values can stand above or below the binder they belong to.
Target: T1, Biotinylated N-Avitagged-TEAD4^217-434 (UniProt Q15561 217-434, biotin (biotinylated Avitag))
T1 chain: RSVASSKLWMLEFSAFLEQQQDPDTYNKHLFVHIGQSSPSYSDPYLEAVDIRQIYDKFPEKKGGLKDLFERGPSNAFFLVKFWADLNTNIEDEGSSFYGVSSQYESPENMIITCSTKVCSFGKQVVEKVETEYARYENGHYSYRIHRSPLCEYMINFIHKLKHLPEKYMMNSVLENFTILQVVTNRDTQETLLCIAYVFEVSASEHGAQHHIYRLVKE
Assay: FRET

- IC50: 11 nM
B1: YAP^50-171 (domain or fragment)
chain: AGHQIVHVRGDSETDLEALFNAVMNPKTANVPQTVPMRLRKLPDSFFKPPEPKSHSRQASTDAGTAGALTPQHVRAHSSPASLQLGAVSPGTLTPTGVVSGPAATPTAQHLRQSSFEIPDDV

- IC50: 7 nM
B2: YAP^50-171 with a cysteine inserted at position 172 (domain or fragment)
chain: AGHQIVHVRGDSETDLEALFNAVMNPKTANVPQTVPMRLRKLPDSFFKPPEPKSHSRQASTDAGTAGALTPQHVRAHSSPASLQLGAVSPGTLTPTGVVSGPAATPTAQHLRQSSFEIPDDVC

From paper PMC8976148 (2022)
